Patent US20210346432A1 (Memorial Sloan Kettering, published 2021)
Values belong to the binder of their own block, whether it stands above or below them.

Legend:
[1] = molecular target: T1, mouse BCMA (mouse, UniProt O88472 1-49, limits assumed); assay: ELISA (OD450), single point, coats human BCMA, mouse BCMA, blank
T1 chain (looked up): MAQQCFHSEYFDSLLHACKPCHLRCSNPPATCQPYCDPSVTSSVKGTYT

[2] = molecular target: T2, A647 conjugated BCMA-Fc fusion protein (human, UniProt Q02223 1-54, A647 conjugated (site not stated)); assay: flow cytometry, A647 conjugated BCMA-Fc on CAR-transduced human T cells
T2 construct: Staining reagent for CAR on T cells; not shown: Fc part
T2 sequence: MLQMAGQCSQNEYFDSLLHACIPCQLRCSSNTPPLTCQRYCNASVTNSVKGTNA
Procedure: Human T cells (unselected (CD4 and CD8) human T cells from a healthy donor) were transduced with retrovirus in order to express each of these BCMA-targeted CARs such that the T cells expressed these BCMA-targeted 28z CARs. The cell surface expression of BCMA-targeted CARs on human T cells was determined via binding A647 conjugated BCMA-Fc fusion protein.

binding result [1]: no binding
B1: ET140-204 (scFv)
scFv: QSALTQPASVSASPGQSIAISCTGTSSDVGWYQQHPGKAPKLMIYEDSKRPSGVSNRFSGSKSGNTASLTISGLQAEDEADYYCSSNTRSSTLVFGGGTKLTVLGSRGGGGSGGGGSGGGGSLEMAEVQLVQSGAEMKKPGASLKLSCKASGYTFIDYYVYWMRQAPGQGLESMGWINPNSGGTNYAQKFQGRVTMTRDTSISTAYMELSRLRSDDTAMYYCARSQRDGYMDYWGQGTLVTVSS
notes: also called ET140-204 scFv; ET140-54 scFv

binding result [1]: no binding
B2: ET140-174 (scFv)
scFv: SYELTQPPSASGTPGQRVTMSCSGTSSNIGSHSVNWYQQLPGTAPKLLIYTNNQRPSGVPDRFSGSKSGTSASLAISGLQSEDEADYYCAAWDGSLNGLVFGGGTKLTVLGSRGGGGSGGGGSGGGGSLEMAEVQLVQSGAEVKKPGESLKISCKGSGYSFTSYWIGWVRQMPGKGLEWMGIIYPGDSDTRYSPSFQGHVTISADKSISTAYLQWSSLKASDTAMYYCARYSGSFDNWGQGTLVTVSS
notes: also called ET140-174 scFv; ET140-24 scFv

binding result [1]: no binding
B3: ET140-201 (scFv)
scFv: QPVLTQPPSASASLGASVTLTCTLSSGYSNYKVDWYQQRPGKGPRFVMRVGTGGIVGSKGDGIPDRFSVLGSGLNRYLTIKNIQEEDEGDYHCGADHGSGSNFVYVFGTGTKVTVLGSRGGGGSGGGGSGGGGSLEMAQVQLQESGPGLVKPSGTLSLTCGVSGGSISNSNWWSWVRQPPGKGLEWIGEIYHSGSTKYNPSLRSRVTISVDKSKNQFSLKLSSVTAADTAVYYCARRDNWKTPTTKIDGFDIWGQGTMVTVSS
notes: also called ET140-201 scFv; ET140-51 scFv

binding result [1]: no binding
B4: ET140-188 (scFv)
scFv: SYVLTQPPSASGTPGQRVTISCSGSSSNIGSNTVNWYQQVPGTAPKLLIYSNNQRPSGVPDRFSGSKSGASASLAISWLQSEDEADYYCAAWDDSLNGWVFGGGTKLTVLGSRGGGGSGGGGSGGGGSLEMAQMQLVQSGAEVKKPGASVKVSCKASGYTFTGYYVHWLRQAPGQGLEWMGWINPNSGGTNNAQEFQGRITMTRDTSINTAYMELSRLRSDDTAVYYCARSQWGGTYDYWGQGTLVTVSS
notes: also called ET140-188 scFv; ET140-38 scFv

binding result [1]: no binding
B5: ET140-172 (scFv)
scFv: QSVVTQPPSVSGAPGQRVTISCSGSSSNIGARYDVQWYQQLPGTAPKLLIFGNNNRPSGVPDRFSGSKSGTSASLAITGLQAEDEADYYCQSYDSSLSASVFGGGTKLTVLGSRGGGGSGGGGSGGGGSLEMAEVQLVQSGAEVKKPGASVKVSCKASGYTFTSYYMHWVRQAPGQGLEWMGIINPSGGSTSYAQKFQGRVTMTRDTSTSTVYMELSSLRSEDTAVYYCARSQWGGVLDYWGQGTLVTVSS
notes: also called ET140-172 scFv; ET140-22 scFv

binding result [1]: no binding
B6: ET140-196 (scFv)
scFv: QAVLTQPPSASGTPGQRVTISCSGSSSNIGSYTVSWYQQLPGTAPKFLIYSNNQRPSGVPDRFSGSKSGTSASLAISGLQSEDEADYYCAAWDDSLNGYVFGTGTKVTVLGSRGGGGSGGGGSGGGGSLEMAEVQLVQSGAEVKKPGESLKISCKGSGYDFTTYWIGWVRQMPGKGLEWMGIIYPGDSDTRYSPSVRGRVTISADKSINTAYLQWSSLEASDTAMYYCARMWTFSQDGWGQGTLVTVSS
notes: also called ET140-196 scFv; ET140-46 scFv

binding result [2]: binds
B7: BCMA-targeted 28z CAR24 (other)
chain: SYELTQPPSASGTPGQRVTMSCSGTSSNIGSHSVNWYQQLPGTAPKLLIYTNNQRPSGVPDRFSGSKSGTSASLAISGLQSEDEADYYCAAWDGSLNGLVFGGGTKLTVLGSRGGGGSGGGGSGGGGSLEMAEVQLVQSGAEVKKPGESLKISCKGSGYSFTSYWIGWVRQMPGKGLEWMGIIYPGDSDTRYSPSFQGHVTISADKSISTAYLQWSSLKASDTAMYYCARYSGSFDNWGQGTLVTVSSIEVMYPPPYLDNEKSNGTIIHVKGKHLCPSPLFPGPSKPFWVLVVVGGVLACYSLLVTVAFIIFWVRSKRSRLLHSDYMNMTPRRPGPTRKHYQPYAPPRDFAAYRSRVKFSRSADAPAYQQGQNQLYNELNLGRREEYDVLDKRRGRDPEMGGKPRRKNPQEGLYNELQKDKMAEAYSEIGMKGERRRGKGHDGLYQGLSTATKDTYDALHMQALPPR
notes: Chimeric antigen receptor on transduced human T cells; leader left out; also called BCMA-specific 28z CAR24

binding result [1]: no binding
B8: ET140-207 (scFv)
scFv: QPVLTQPPSASASLGASVTLTCTLSSGYSNYKVDWYQQRPGKGPRFLMRVDTGGIVGSKGDGIPDRFSVSGSGLNRYLTIKNIQEEDESDYHCGADHGSGSNFVWVFGGGTKLTVLGSRGGGGSGGGGSGGGGSLEMAQVQLVQSGAEVKKPGSSVKVSCKASGGTFSSYAISWVRQAPGQGLEWMGGIIPIFSTANYAQKFQGRVTMTTDTSTSTAYMELRSLRSDDTAVYYCARQPWTWYSPYDQWGQGTLVTVSS
notes: also called ET140-207 scFv; ET140-57 scFv
